Assay [1] addresses T1, properdin (purified human complement component) (human, UniProt P27918 28-469).
T1 construct: Bought purified protein; also called fP
In words: ELISA, coated CAT, properdin in solution, detected with goat α-properdin Ab. For orientation: In an ELISA, binding on a coated surface is turned into a signal by an enzyme label.

In assay [2] the target is T1, properdin (purified human complement …). Nature of the assay: solid-phase saturation binding ELISA, S20NS coated (10 ng/well), properdin titrated.

The values that follow come from US20110014218A1 (UNIVERSITY OF NORTH CAROLINA AT CHAPEL HILL, published 2011).

A word on the Kd: it is the free concentration of one partner at which half of the binding sites on the other are occupied at equilibrium, for simple one-to-one binding.

T1 sequence (P27918 28-469 limits assumed): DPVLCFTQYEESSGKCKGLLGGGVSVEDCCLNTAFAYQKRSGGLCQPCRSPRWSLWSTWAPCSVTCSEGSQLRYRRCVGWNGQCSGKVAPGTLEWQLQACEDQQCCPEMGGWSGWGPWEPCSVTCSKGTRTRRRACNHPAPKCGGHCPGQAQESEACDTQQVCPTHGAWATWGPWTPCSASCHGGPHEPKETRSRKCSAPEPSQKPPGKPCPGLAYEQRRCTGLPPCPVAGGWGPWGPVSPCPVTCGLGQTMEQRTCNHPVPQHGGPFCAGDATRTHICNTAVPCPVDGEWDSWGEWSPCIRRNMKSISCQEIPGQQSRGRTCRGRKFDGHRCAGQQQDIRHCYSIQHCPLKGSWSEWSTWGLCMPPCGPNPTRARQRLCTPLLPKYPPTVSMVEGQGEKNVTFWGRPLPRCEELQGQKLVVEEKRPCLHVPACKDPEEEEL

B1: chloramphenicol acetyl-transferase protein containing C-terminal V5-epitope and 6x-histidine tags (CAT) (enzyme)
chain: MEKKITGYTTVDISQWHRKEHFEAFQSVAQCTYNQTVQLDITAFLKTVKKNKHKFYPAFIHILARLMNAHPEFRMAMKDGELVIWDSVHPCYTVFHEQTETFSSLWSEYHDDFRQFLHIYSQDVACYGENLAYFPKGFIENMFFVSANPWVSFTSFDLNVANMDNFFAPVFTMGKYYTQGDKVLMPLAIQVHHAVCDGFHVGRMLNELQQYCDEWQGGA
notes: Negative control protein expressed from the same expression vector as S20NS in High Five cells
Turning to B1, in assay [1], the binding result is recorded as “no binding”.

B2: S20NS (Salp20 protein containing C-terminal V5-epitope and 6x-histidine tags) (other)
chain: SEDGLEQDSKVETTTQNLYERHYRNNSGLCGAQYRNSSHAEAVYNCTLSLLPPKVNETWEGIRHRINKSIPEFVRLMCNFSVVMPEDFYLVYMGSNGNSYSEEDEESTDTDKDSKTGSSAAVEVTEKLILKAEENCTAHITGWTTEAPTTLEPTETQFEAIS
modifications: multiple N- and O-linked glycans (insect cell expressed)
notes: Recombinant protein secreted from stably transfected High Five insect cells and purified; also called I. scapularis salivary protein 20
For B2, the affinity in assay [2], expressed as Kd, was 0.669 nM.
